Target: T1, human PDL1 protein (human, UniProt Q9NZQ7 19-238, limits assumed)
T1 construct: Plate-coated protein
Test: titration ELISA, plates coated with human PD-L1, soluble monomeric decoy, anti-His tag detection

T1 sequence (Q9NZQ7 19-238 limits assumed): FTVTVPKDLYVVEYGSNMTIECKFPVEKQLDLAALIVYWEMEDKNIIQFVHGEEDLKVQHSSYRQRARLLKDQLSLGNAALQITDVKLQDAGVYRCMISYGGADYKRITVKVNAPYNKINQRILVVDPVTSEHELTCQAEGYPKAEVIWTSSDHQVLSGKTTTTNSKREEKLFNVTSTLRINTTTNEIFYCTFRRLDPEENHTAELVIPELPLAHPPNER

| Binder | fold better binding than the WT PD1 decoy [fold] |
| --- | --- |
| PD1_4XMUT_M70 (with 6xHis) (receptor, also called soluble monomeric PD1 decoy variant) MASDSPDRPWNPPTFSPALLVVTEGDNATFTCSFSNTSESFVLNWYRMSPSNQDDRLAAFPEDRSQPGQDARFRVTQLPNGRDFHMSVVRARRNDSGTYFCGAISLAPKAKIKESLRAELRVTERRALEHHHHHH | 10 |
| PD1_6XDM (with 6xHis) (receptor, also called PD-1 decoy variant 6XDM; soluble monomeric PD1 decoy variant) MASDSPDRPWNPPTFSPALLVVTEGDNATFTCSFSNTSESFVLNWYRMSPSNQVDRLAAFPEDRSQPGQDARFRVTQLPNGRDFHMSVVRARRNDSGTYFCGAISLAPKWKIKESLRAELRVTERRALEHHHHHH | ~7.5 |

— US20220387555A1 (LUDWIG INSTITUTE FOR CANCER RESEARCH, published 2022)
